The source of these data is publication PMC5893306 (Molecular pharmaceutics, 2018).

A value given as a limit tells only on which side of the number the result lay.

The data set is described as follows: Rat pharmacokinetics, IV and SC. The format is in vivo, Sprague Dawley rats. The settings on record: for Vd / half-life / Tmax / bioavailability / clearance: Sprague-Dawley, rat, plasma; for increase in half-life upon IV or SC dosing / reduction of clearance: rats, compared to PIE12-trimer; for reduction of clearance: IV.

Usually half-life stands for the time in which the quantity being followed falls by half. A low value points to fast loss. The Tmax is the time at which the peak concentration occurs. One may read the bioavailability as dose-corrected exposure relative to a reference, in per cent. Lower therefore signals little systemic uptake.

As for `CCCCCCCCCCCCCCCCSC1CC(=O)N(CCC(=O)NCCOCCOCCOCCOCCOCCOCCOCCOCCOCCOCCOCCOCCOCCOCCOCCOCCOCCOCCOCCOCCOCCOCCOCCOCCC(=O)NC(COCCC(=O)NCCOCCOCCOCCOCCC(=O)NCCCC[C@@H](NC(=O)CNC(=O)[C@@H](CC(C)C)NC(=O)[C@@H](CCC(=O)O)NC(=O)[C@H]2CSSC[C@@H](NC(=O)[C@H]3CCCN3C(=O)[C@@H](Cc3c[nH]cn3)NC(C)=O)C(=O)N[C@H](CC(=O)O)C(=O)N[C@H](Cc3ccc(O)cc3)C(=O)N3CCC[C@@H]3C(=O)N[C@H](CCC(=O)O)C(=O)N[C@H](Cc3c[nH]c4ccccc34)C(=O)N[C@H](CCC(N)=O)C(=O)N[C@H](Cc3c[nH]c4ccccc34)C(=O)N[C@H](CC(C)C)C(=O)N2)C(N)=O)(COCCC(=O)NCCOCCOCCOCCOCCC(=O)NCCCC[C@@H](NC(=O)CNC(=O)[C@@H](CC(C)C)NC(=O)[C@@H](CCC(=O)O)NC(=O)[C@H]2CSSC[C@@H](NC(=O)[C@H]3CCCN3C(=O)[C@@H](Cc3c[nH]cn3)NC(C)=O)C(=O)N[C@H](CC(=O)O)C(=O)N[C@H](Cc3ccc(O)cc3)C(=O)N3CCC[C@@H]3C(=O)N[C@H](CCC(=O)O)C(=O)N[C@H](Cc3c[nH]c4ccccc34)C(=O)N[C@H](CCC(N)=O)C(=O)N[C@H](Cc3c[nH]c4ccccc34)C(=O)N[C@H](CC(C)C)C(=O)N2)C(N)=O)COCCC(=O)NCCOCCOCCOCCOCCC(=O)NCCCC[C@@H](NC(=O)CNC(=O)[C@@H](CC(C)C)NC(=O)[C@@H](CCC(=O)O)NC(=O)[C@H]2CSSC[C@@H](NC(=O)[C@H]3CCCN3C(=O)[C@@H](Cc3c[nH]cn3)NC(C)=O)C(=O)N[C@H](CC(=O)O)C(=O)N[C@H](Cc3ccc(O)cc3)C(=O)N3CCC[C@@H]3C(=O)N[C@H](CCC(=O)O)C(=O)N[C@H](Cc3c[nH]c4ccccc34)C(=O)N[C@H](CCC(N)=O)C(=O)N[C@H](Cc3c[nH]c4ccccc34)C(=O)N[C@H](CC(C)C)C(=O)N2)C(N)=O)C1=O` (some centres unmarked) [C16-PIE12-trimer], the “increase in half-life upon IV or SC dosing” value is given as less than 2 fold and the reduction of clearance was 5-8 fold. For the same compound, for the setting “iv”, the Vd was 0.137 L/kg and the half-life is 0.9 h. Besides, under “sc”, the Tmax was found to be 1 h, the bioavailability was 38% and the half-life is 1.2 h.

For `CCCCCCCCCCCCCCCCCCSC1CC(=O)N(CCC(=O)NCCOCCOCCOCCOCCOCCOCCOCCOCCOCCOCCOCCOCCOCCOCCOCCOCCOCCOCCOCCOCCOCCOCCOCCOCCC(=O)NC(COCCC(=O)NCCOCCOCCOCCOCCC(=O)NCCCC[C@@H](NC(=O)CNC(=O)[C@@H](CC(C)C)NC(=O)[C@@H](CCC(=O)O)NC(=O)[C@H]2CSSC[C@@H](NC(=O)[C@H]3CCCN3C(=O)[C@@H](Cc3c[nH]cn3)NC(C)=O)C(=O)N[C@H](CC(=O)O)C(=O)N[C@H](Cc3ccc(O)cc3)C(=O)N3CCC[C@@H]3C(=O)N[C@H](CCC(=O)O)C(=O)N[C@H](Cc3c[nH]c4ccccc34)C(=O)N[C@H](CCC(N)=O)C(=O)N[C@H](Cc3c[nH]c4ccccc34)C(=O)N[C@H](CC(C)C)C(=O)N2)C(N)=O)(COCCC(=O)NCCOCCOCCOCCOCCC(=O)NCCCC[C@@H](NC(=O)CNC(=O)[C@@H](CC(C)C)NC(=O)[C@@H](CCC(=O)O)NC(=O)[C@H]2CSSC[C@@H](NC(=O)[C@H]3CCCN3C(=O)[C@@H](Cc3c[nH]cn3)NC(C)=O)C(=O)N[C@H](CC(=O)O)C(=O)N[C@H](Cc3ccc(O)cc3)C(=O)N3CCC[C@@H]3C(=O)N[C@H](CCC(=O)O)C(=O)N[C@H](Cc3c[nH]c4ccccc34)C(=O)N[C@H](CCC(N)=O)C(=O)N[C@H](Cc3c[nH]c4ccccc34)C(=O)N[C@H](CC(C)C)C(=O)N2)C(N)=O)COCCC(=O)NCCOCCOCCOCCOCCC(=O)NCCCC[C@@H](NC(=O)CNC(=O)[C@@H](CC(C)C)NC(=O)[C@@H](CCC(=O)O)NC(=O)[C@H]2CSSC[C@@H](NC(=O)[C@H]3CCCN3C(=O)[C@@H](Cc3c[nH]cn3)NC(C)=O)C(=O)N[C@H](CC(=O)O)C(=O)N[C@H](Cc3ccc(O)cc3)C(=O)N3CCC[C@@H]3C(=O)N[C@H](CCC(=O)O)C(=O)N[C@H](Cc3c[nH]c4ccccc34)C(=O)N[C@H](CCC(N)=O)C(=O)N[C@H](Cc3c[nH]c4ccccc34)C(=O)N[C@H](CC(C)C)C(=O)N2)C(N)=O)C1=O` (some centres unmarked) [C18-PIE12-trimer], the “increase in half-life upon IV or SC dosing” value is recorded as less than 2 fold and the reduction of clearance is 5-8 fold. Under “iv”, the Vd stood at 0.227 L/kg, the clearance was 2.5 mL/min/kg and the half-life is 1.1 h. Also, under “sc”, the Tmax turned out to be 2 h, the bioavailability stood at 94% and the half-life is 1.4 h.

Where the note is “iv”, `CC(=O)N[C@H](Cc1c[nH]cn1)C(=O)N1CCC[C@@H]1C(=O)N[C@@H]1CSSC[C@H](C(=O)N[C@H](CCC(=O)O)C(=O)N[C@H](CC(C)C)C(=O)NCC(=O)N[C@H](CCCCNC(=O)CCOCCOCCOCCOCCNC(=O)CCOCC(C)(COCCC(=O)NCCOCCOCCOCCOCCC(=O)NCCCC[C@@H](NC(=O)CNC(=O)[C@@H](CC(C)C)NC(=O)[C@@H](CCC(=O)O)NC(=O)[C@H]2CSSC[C@@H](NC(=O)[C@H]3CCCN3C(=O)[C@@H](Cc3c[nH]cn3)NC(C)=O)C(=O)N[C@H](CC(=O)O)C(=O)N[C@H](Cc3ccc(O)cc3)C(=O)N3CCC[C@@H]3C(=O)N[C@H](CCC(=O)O)C(=O)N[C@H](Cc3c[nH]c4ccccc34)C(=O)N[C@H](CCC(N)=O)C(=O)N[C@H](Cc3c[nH]c4ccccc34)C(=O)N[C@H](CC(C)C)C(=O)N2)C(N)=O)COCCC(=O)NCCOCCOCCOCCOCCC(=O)NCCCC[C@@H](NC(=O)CNC(=O)[C@@H](CC(C)C)NC(=O)[C@@H](CCC(=O)O)NC(=O)[C@H]2CSSC[C@@H](NC(=O)[C@H]3CCCN3C(=O)[C@@H](Cc3c[nH]cn3)NC(C)=O)C(=O)N[C@H](CC(=O)O)C(=O)N[C@H](Cc3ccc(O)cc3)C(=O)N3CCC[C@@H]3C(=O)N[C@H](CCC(=O)O)C(=O)N[C@H](Cc3c[nH]c4ccccc34)C(=O)N[C@H](CCC(N)=O)C(=O)N[C@H](Cc3c[nH]c4ccccc34)C(=O)N[C@H](CC(C)C)C(=O)N2)C(N)=O)C(N)=O)NC(=O)[C@@H](CC(C)C)NC(=O)[C@@H](Cc2c[nH]c3ccccc23)NC(=O)[C@@H](CCC(N)=O)NC(=O)[C@@H](Cc2c[nH]c3ccccc23)NC(=O)[C@@H](CCC(=O)O)NC(=O)[C@H]2CCCN2C(=O)[C@@H](Cc2ccc(O)cc2)NC(=O)[C@@H](CC(=O)O)NC1=O` [PIE12-trimer] gave a Vd of 0.704 L/kg, a clearance of 13.9 mL/min/kg and a half-life of 0.6 h. For the same compound, under “sc”, the Tmax is 0.5 h and the half-life is 0.8 h.
